Changes are numbered by the printed parent chain.
Key:
[1] = biological target: wild-type rat mu opioid receptor (rat); test: cell-based or functional assay
[2] = biological target: Asn150Ala mutant rat mu opioid receptor (rat) (UniProt P33535); test: cell-based or functional assay
rat mu opioid receptor [3] = biological target: T1, rat mu opioid receptor (Rattus norvegicus, UniProt P33535, N150A); test: CRE-Luc luciferase reporter assay with forskolin stimulation; format: cell-based; conditions: CRE-Luc, 0.5 μM or 2 μM forskolin
T1 construct: expressed in transfected cells; host or cells: HEK293 (stated for the SRE-Luc/Gq5i assay); receptor gene in pcDNA1
Source text: (§1) The response element employed in this assay was the cAMP-response element (CRE), which is sensitive to Gαi mediated reductions in intracellular levels of cAMP. Signaling through the rat mu opioid receptor via Gαi inhibits adenylate cyclase, causing a decrease in intracellular cellular cAMP. Therefore, an increase in rat mu opioid receptor signaling induces a decrease in CRE mediated reporter activity.
Mutation induced Gαi-mediated decreases in intracellular cAMP were, prior to the present invention, more often measured by 1) stimulating cells with forskolin, which causes receptor-independent activation of adenylate cyclase and generates an intracellular pool of cAMP; 2) stimulating the cells with ligand; and 3) measuring the ligand-induced, receptor-dependent Gαi-mediated decrease in the intracellular cAMP pool (e.g., using a radioimmunoassay (e.g., New England Nuclear, Boston, Mass.)). […] Specifically, cells transfected with a CRE-Luc reporter construct (Stratagene, La Jolla, Calif.) and an expression vector encoding either a wild-type or a mutant rat mu opioid receptor were stimulated with 0.5 μM or 2 μM forskolin to increase the intracellular pool of cAMP. The basal (and ligand-induced) level of receptor activity was then measured using a standard luciferase assay (see FIG. 4). Coexpression of the receptor of interest with a luciferase reporter gene construct allows one to measure light emission as a readout for basal signaling.
This decrease in activity indicates an increase in the basal level activity of the mutant rat mu opioid receptor, because activation of the rat mu opioid receptor induces a decrease in CRE-mediated reporter activity (FIG. 4, compare 0.5 μM wild-type vs. 0.5 μM mutant and 2 μM wild-type vs. 2 μM mutant).

rat mu opioid receptor [4] = biological target: T1, rat mu opioid receptor; test: SRE-Luc/Gq5i luciferase reporter assay in HEK293 cells; format: cell-based; conditions: see Example 1
Source text: (§2) A positive assay for Gαi coupling (i.e., one that yields an increase in luciferase activity upon receptor activation, instead of a negative assay, one that yields a decrease in luciferase activity upon receptor activation), provides a detectable output signal and less interassay variation. It was hypothesized that Gαi coupling could be detected by altering the signaling pathway generated by Gαi coupled receptors. A chimeric G protein (Gqi5, Broach and Thorner, Nature 384 (Suppl.): 14-16 (1996)) that contains the entire Gαq protein having five C-terminal amino acids from Gαi attached to the C-terminus of Gαq has been generated. This chimeric G protein is recognized as Gαi by Gαi coupled receptors, but switches the receptor induced signaling from Gαi to Gαq. This allows Gαi receptor coupling to be detected using a positive assay by use of the Gαq responsive SMS-Luc or SRE-Luc construct (Stratagene, La Jolla, Calif.). SMS and SRE preferably respond to Gαq mediated inositol and calcium production. Moreover, detection can be carried out in the absence of forskolin pre-stimulation of cells.
(§3) Reagents & Solutions: The cell culture media used in the assays described below was Gibco BRL #12100-046. This media was made according to manufacturer's recipe, pH adjusted to 7.2, filtered (0.22 micron pore), and supplemented with 1% Pen/Strep (Gibco #15140-122; 100% penicillin G 10,000 units/ml, and streptomycin 10,000 μg/ml) and 10% fetal bovine serum. Cell culture media lacking 10% fetal bovine serum was also generated. DNA used in the transfection experiments was purified and quantitated by measuring the absorbance at OD260. A LucLite Luciferase Assay Kit (Packard) was used to quantitate luciferase activity. Transfections were carried out using LipofectAMINE Reagent (Gibco #18324-012).
(§4) The rat mu opioid receptor is a Gαi coupled receptor. Therefore we chose to use the Gq5i reporter system, described in detail above (Broach and Thorner, supra), which switches the signaling pathway from Gαi to Gαq for reliable positive readout. HEK293 cells were transfected with the reporter construct SRE-Luc, an expression vector containing nucleic acid encoding Gq5i (Broach and Thorner, supra), and an expression vector containing nucleic acid encoding either the wild-type or the Asn150Ala mutant rat mu opioid receptor. Basal and ligand-stimulated luciferase activity was measured. The ligand used in this assay was [D—Ala^2—MePhe^4, Gly-ol^5]enkephalin] (DAMGO). As a negative control, HEK293 cells were transfected with pcDNA1 (empty vector DNA), SRE-Luc, and the expression vector containing nucleic acid encoding Gq5i (Broach and Thorner, supra).
(§5) The luciferase assay was carried out as follows. On day 1, HEK293 cells in a T75 flask were washed with 15 ml serum-free media (or PBS), trypsinized with 5 ml 0.05% trypsin-EDTA (Gibco #25300-062), incubated at 37° C. for 3 minutes at which time 6-7 ml complete HEK293 media (Gibco #12100-046) and 10% Fetal Bovine Serum (Intergen #1050-90) were added. Thereafter, cells were collected in 50 ml centrifuge tubes, pelleted at 800-900 rpm (RCF˜275), and resuspend in 20 ml complete media. The cells were counted using a haemocytometer and diluted to 85,000 cells/ml in complete media. Using a repeat pipettor or cell plater, 100 μl of cells were added to each well of a Primaria 96-well plate (Falcon #353872). Cells were then incubated at 37° C., 5% CO2 until use at 48 hours.
(§6) On day 3, cells were transfected using LipofectAMINE™ according to the manufacturer's protocol (Gibco #18324-012, Rockville, Md.).
(§7) On day 4, cells were stimulated as follows. Ligands for the receptor, either DAMGO or a non-peptide ligand (e.g., naloxone or naltrexone), were diluted to a desired concentration in serum-free media containing 0.15 mM PMSF (or other protease inhibitor(s)). […]

rat mu opioid receptor [5] = test: as above; format: cell-based; conditions: SRE + Gq5i
Source text: as §2, §3, §4, §5, §6, §7

mu opioid receptor = test: Luciferase activity on DAMGO titration (FIG. 15); format: cell-based, rat; conditions: DAMGO titrated onto cells
Procedure: Ligand (Damgo) was titrated onto the cells expressing either the mutant or the wild-type mu opioid receptor and the luciferase activity was measured to assess the sensitivity of the receptor to ligand stimulation.
It is important to note that the mu opioid receptor of the invention is also hypersensitive.

CCK-BR [6] = biological target: T2, CCK-BR (Homo sapiens, UniProt P32239, L325E); test: Luciferase reporter assay (SMS-Luc, SRE-Luc) in HEK293 cells; format: cell-based
T2 construct: expressed in transfected cells; host or cells: HEK293
T2 sequence (P32239 1-447 L325E): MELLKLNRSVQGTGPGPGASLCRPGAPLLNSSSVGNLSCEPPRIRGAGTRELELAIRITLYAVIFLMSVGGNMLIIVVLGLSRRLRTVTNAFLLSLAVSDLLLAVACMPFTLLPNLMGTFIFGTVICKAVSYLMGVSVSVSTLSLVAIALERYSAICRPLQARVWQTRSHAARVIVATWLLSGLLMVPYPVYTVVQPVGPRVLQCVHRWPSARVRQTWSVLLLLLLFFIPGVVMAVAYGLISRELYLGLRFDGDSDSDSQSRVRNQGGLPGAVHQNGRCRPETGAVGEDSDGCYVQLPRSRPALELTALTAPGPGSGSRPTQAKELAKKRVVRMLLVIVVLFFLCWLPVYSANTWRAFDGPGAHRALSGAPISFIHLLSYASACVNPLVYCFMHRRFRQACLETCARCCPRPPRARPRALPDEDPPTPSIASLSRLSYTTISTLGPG
Source text: as §1
HEK293 cells were transfected (as described above) with SMS-Luc and an expression vector encoding any one of pcDNA1, wild-type CCK-BR, or Leu325Glu CCK-BR.

CCK-BR [7] = conditions: COS-7 cells, absence of agonist; cited from earlier work
PTH receptor = conditions: COS-7 cells; cited from earlier work

## [D-Ala^2-MePhe^4, Gly-ol^5]enkephalin (peptide)
[1]
  Average Ligand Stimulated Activity (Light Emission) (light emission): 87500
[2]
  Average Ligand Stimulated Activity (Light Emission) (light emission): 87000

B1: Asn150Ala rat mu opioid receptor: rat mu opioid receptor (SEQ ID NO: 1) with Asn to Ala point mutation at position 150, expressed from pcDNA1 (protein)
chain: MDSSTGPGNTSDCSDPLAQASCSPAPGSWLNLSHVDGNQSDPCGLNRTGLGGNDSLCPQTGSPSMVTAITIMALYSIVCVVGLFGNFLVMYVIVRYTKMKTATNIYIFNLALADALATSTLPFQSVNYLMGTWPFGTILCKIVISIDYYAMFTSIFTLCTMSVDRYIAVCHPVKALDFRTPRNAKIVNVCNWILSSAIGLPVMFMATTKYRQGSIDCTLTFSHPTWYWENLLKICVFIFAFIMPVLIITVCYGLMILRLKSVRMLSGSKEKDRNLRRITRMVLVVVAVFIVCWTPIHIYVIIKALITIPETTFQTVSWHFCIALGYTNSCLNPVLYAFLDENFKRCFREFCIPTSSTIEQQNSTRVRQNTREHPSTANTVDRTNHQLENLEAETAPLP
Rat mu opioid receptor [3]
  basal activity (forskolin-induced, no receptor stimulation) vs wild-type receptor: reduction in basal activity
  level of constitutive activity relative to ligand-stimulated activity of the wild-type receptor: 50%
Rat mu opioid receptor [4]
  basal activity relative to the maximal level of ligand-stimulated second messenger signaling: exceeded 50%
Rat mu opioid receptor [5]; HEK293 cells, ligand DAMGO
  Average Ligand Stimulated Activity (Light Emission): 86,996
Rat mu opioid receptor [5]; HEK293 cells, no ligand
  Average Basal Activity (Light Emission): *56,498
Rat mu opioid receptor [5]; mutant vs wild-type receptor, listed as Asn150Ala mutant mu opioid receptor
  stimulation of basal level activity: approximately 6.5 fold
Mu opioid receptor; listed as Asn150Ala rat mutant mu opioid receptor
  sensitivity of the receptor to ligand stimulation vs wild-type: hypersensitivity
Mu opioid receptor; listed as mutant receptor
  sensitivity of the receptor to ligand stimulation vs wild-type: responsive to a lower concentration of ligand than the wild-type receptor

B2: Leu325Glu CCK-BR mutant: human CCK-BR with point mutation Leu325Glu in the third intracellular loop (protein, UniProt P32239 1-447, looked up, variant L325E)
Gastrin/cholecystokinin type …: T2 sequence (P32239 1-447 L325E)
CCK-BR [6]; SMS and SRE response elements, Gαq coupled, FIG. 3
  basal activity detected by the SMS and SRE response elements: increase in basal activity
CCK-BR [6]; SMS-Luc, HEK293 cells
  basal level activity vs wild-type CCK-BR: increased basal level activity
CCK-BR [7]
  agonist-independent constitutive activity (inositol phosphate production): triggers constitutive production of inositol phosphates to levels exceeding wild-type CCK-BR

B3: His223Arg: polymorphic constitutively active PTH receptor mutant from Jansen's metaphyseal chondrodysplasia patients (protein, UniProt Q03431 27-593, looked up, variant H223R)
Parathyroid …: DADDVMTKEEQIFLLHRAQAQCEKRLKEVLQRPASIMESDKGWTSASTSGKPRKDKASGKLYPESEEDKEAPTGSRYRGRPCLPEWDHILCWPLGAPGEVVAVPCPDYIYDFNHKGHAYRRCDRNGSWELVPGHNRTWANYSECVKFLTNETREREVFDRLGMIYTVGYSVSLASLTVAVLILAYFRRLHCTRNYIRMHLFLSFMLRAVSIFVKDAVLYSGATLDEAERLTEEELRAIAQAPPPPATAAAGYAGCRVAVTFFLYFLATNYYWILVEGLYLHSLIFMAFFSEKKYLWGFTVFGWGLPAVFVAVWVSVRATLANTGCWDLSSGNKKWIIQVPILASIVLNFILFINIVRVLATKLRETNAGRCDTRQQYRKLLKSTLVLMPLFGVHYIVFMATPYTEVSGTLWQVQMHYEMLFNSFQGFFVAIIYCFCNGEVQAEIKKSWSRWTLALDFKRKARSGSSSYSYGPMVSHTSVTNVGPRVGLGLPLSPRLLPTATTNGHPQLPGHAKPGTPALETLETTPPAMAAPKDDGFLNGSCSGLDEEASGPERPPALLQEEWETVM
PTH receptor
  basal cyclic AMP accumulation vs cells expressing wild-type receptors: four to six times higher

B4: Thr410Pro: polymorphic constitutively active PTH receptor missense mutant (protein, UniProt Q03431 27-593, looked up, variant T410P)
Parathyroid …: B3 Parathyroid … with R197H, T384P
PTH receptor
  basal cyclic AMP accumulation vs cells expressing wild-type receptors: four to six times higher
